According to patent US20080227698A1, “OLIGOPEPTIDES FOR TREATMENT OF OSTEOPOROSIS AND OTHER BONE DISEASES AND METHODS THEREOF” (Washington University, priority 2005, published 2008):

Target: LRP6 (Homo sapiens, UniProt O75581)
Experiment: LRP6-mediated ^125I-Mesd degradation in LRP6-transduced HT1080 cells
Assay type: cell-based
Set-up: plasmid pCS-Myc-hLRP6 containing the full-length human LRP6 cDNA; HA; expressed in transfected cells; host or cells: human HT1080 cells, stably transduced (pLNCX2 retroviral vector)
Conditions: ^125I-Mesd 5 nM, 4 hours at 37° C.
Experimental: Ligand degradation was performed using the methods as described (Li, Y., J. Biol. Chem. 275: 17187-17194, 2000). Briefly, 2×10^5 cells were seeded into 12-well dishes 1 day prior to assay. Pre-warmed assay buffer (minimal Eagle's medium containing 0.6% BSA with radioligand, 0.6 ml/well) was added to cell monolayers in the absence or the presence of unlabeled 500 nM RAP or 500 nM Mesd, followed by incubation for 4 hours at 37° C. Thereafter, the medium overlying the cell monolayers was removed and proteins were precipitated by addition of BSA to 10 mg/ml and trichloroacetic acid to 20%. Degradation of radioligand was defined as the appearance of radioactive fragments in the overlying medium that were soluble in 20% trichloroacetic acid. Kinetic analysis of endocytosis LRP6-transduced HT1080 cells were plated in 12-well plates at a density of 2×10^5 cells/well and used after overnight culture. Cells were rinsed twice in ice-cold assay buffer (minimal Eagle's medium containing 0.6% BSA), and ^125I-anti-HA IgG was added at 1 nM final concentration in cold assay buffer (0.5 ml/well). The binding of ^125Ianti- HA IgG was carried out at 4° C. for 90 minutes with gentle rocking. Unbound ^125I-anti-HA IgG was removed by washing cell monolayers three times with cold assay buffer. Ice-cold stop/strip solution (0.2 M acetic acid, pH 2.6, 0.1 M NaCl) was added to one set of plates without warming up and kept on ice. The remaining plates were then placed in a 37° C. water bath and 0.5 ml assay buffer prewarmed to 37° C. was quickly added to cell monolayers to initiate internalization. After each time point, the plates were quickly placed on ice and the assay buffer was replaced with cold stop/strip solution. ^125I-anti-HA IgG that remained on the cell surface was stripped by incubation of cell monolayers with cold stop/strip solution for a total of 20 minutes (0.75 ml for 10 minutes, twice) and counted. Cell monolayers were then solubilized with low-SDS lysis buffer and counted. […] The fraction of internalized ^125I-anti-HA IgG after each time point was calculated and plotted. […]

LRP6, sequence (O75581 20-1613): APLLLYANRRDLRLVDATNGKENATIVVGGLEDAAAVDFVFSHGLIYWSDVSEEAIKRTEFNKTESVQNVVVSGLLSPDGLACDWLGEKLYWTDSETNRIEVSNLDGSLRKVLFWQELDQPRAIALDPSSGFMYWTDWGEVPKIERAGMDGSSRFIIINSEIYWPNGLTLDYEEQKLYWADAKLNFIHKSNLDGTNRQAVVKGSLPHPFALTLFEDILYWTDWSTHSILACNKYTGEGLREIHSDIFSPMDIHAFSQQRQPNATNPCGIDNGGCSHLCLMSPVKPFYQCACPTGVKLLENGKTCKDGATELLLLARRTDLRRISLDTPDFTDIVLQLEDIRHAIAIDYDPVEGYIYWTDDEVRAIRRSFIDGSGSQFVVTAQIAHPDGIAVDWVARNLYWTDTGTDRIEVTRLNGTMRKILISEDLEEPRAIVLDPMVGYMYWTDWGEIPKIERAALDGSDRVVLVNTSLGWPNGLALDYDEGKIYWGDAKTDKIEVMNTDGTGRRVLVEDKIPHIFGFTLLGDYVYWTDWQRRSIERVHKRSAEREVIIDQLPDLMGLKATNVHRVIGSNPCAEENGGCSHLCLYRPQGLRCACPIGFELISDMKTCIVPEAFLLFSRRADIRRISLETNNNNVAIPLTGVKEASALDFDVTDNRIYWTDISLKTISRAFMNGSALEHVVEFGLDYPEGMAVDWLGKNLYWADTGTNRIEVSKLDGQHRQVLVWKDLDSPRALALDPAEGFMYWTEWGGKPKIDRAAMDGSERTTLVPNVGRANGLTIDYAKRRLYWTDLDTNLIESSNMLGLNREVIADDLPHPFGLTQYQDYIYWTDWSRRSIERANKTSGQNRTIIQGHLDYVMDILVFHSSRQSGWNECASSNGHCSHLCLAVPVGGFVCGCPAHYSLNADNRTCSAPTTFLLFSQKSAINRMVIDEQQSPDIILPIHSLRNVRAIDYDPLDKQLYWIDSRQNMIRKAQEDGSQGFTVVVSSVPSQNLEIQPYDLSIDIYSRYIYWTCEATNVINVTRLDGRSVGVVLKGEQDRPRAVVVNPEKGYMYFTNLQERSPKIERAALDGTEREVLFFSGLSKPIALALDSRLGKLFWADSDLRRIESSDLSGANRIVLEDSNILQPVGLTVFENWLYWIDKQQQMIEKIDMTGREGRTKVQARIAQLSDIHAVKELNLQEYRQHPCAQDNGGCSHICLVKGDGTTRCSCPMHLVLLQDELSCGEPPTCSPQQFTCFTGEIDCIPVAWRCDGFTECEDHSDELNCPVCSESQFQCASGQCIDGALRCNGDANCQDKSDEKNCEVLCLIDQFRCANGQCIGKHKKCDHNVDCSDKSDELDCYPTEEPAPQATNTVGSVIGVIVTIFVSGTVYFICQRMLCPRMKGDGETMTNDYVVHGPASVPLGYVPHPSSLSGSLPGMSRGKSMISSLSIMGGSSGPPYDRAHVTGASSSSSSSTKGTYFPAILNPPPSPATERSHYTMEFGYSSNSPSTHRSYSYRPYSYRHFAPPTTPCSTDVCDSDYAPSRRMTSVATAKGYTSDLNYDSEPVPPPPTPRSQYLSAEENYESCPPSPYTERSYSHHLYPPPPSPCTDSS

Inhibition of ^125I-Mesd degradation (500 nM unlabeled competitor): completely
^125I-Mesd degradation level (HT1080 cells transduced with LRP6): 320 fmoles/mg cell protein
B1: Mesd: recombinant wild-type mouse Mesd, polyhistidine tail at the N-terminus, lacks the signal peptide, expressed in E. coli (protein)
chain: ADTPGEATPPPRKKKDIRDYNDADMARLLEQWEKDDDIEEGDLPEHKRPSAPIDFSKLDPGKPESILKMTKKGKTLMMFVTVSGNPTEKETEEITSLWQGSLFNANYDVQRFIVGSDRAIFMLRDGSYAWEIKDFLVSQDRCAEVTLEGQMYPGKGGGSKEKNKTKPEKAKKKEGDRKPRASKEDNRAGSRREDL
modifications: left off: small tags and cut ends
notes: recombinant wild-type mouse Mesd, polyhistidine tail at the N-terminus, lacks the signal peptide, expressed in E. coli
